The target in assay [1] is CD47 on the red cell surface (Homo sapiens (Human)) (UniProt Q08722). Nature of the assay: flow cytometry on fixed red cells, antibody 1 µg/mL.
Assay [2] shares this target. Nature of the assay: flow cytometry on fixed red cells, antibody 10 µg/mL.

In the case of IgG4 (antibody), the MFI in assay [1] stood at 449 MFI; in assay [2] it was 484 MFI.

(Values after US20240294635A1.)
